From the RNAGym collection of RNA variant scans (doi:10.1073/pnas.2313332121) come the findings set out here.

To fix the notation:
B1: TPR t1 (parent)
chain: GACCAAUCUGCCCUCAGAGCUCGAGAACAUCUUCGGAUGCAGAGGAGGCAGGCUUCGGUGGCGCGAUAGCGCCAACGUCCUCAACCUCCAAUGCAUCCCACCACAUGAUGAUGCCUGAAGAGCCUUGGUUUUUUG

The variants in the series derive from B1. Nature of the series: polymerase ribozyme fitness, log enrichment relative to wild type (log ratio); higher = more active; in vitro selection for triplet polymerase activity. The procedure, abridged: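 Each subunit of a heterodimeric triplet polymerase ribozyme was represented by a PCR-built, transcribed mutant library that underwent triplicate single-round in vitro selection with frozen incubation at −7 °C. Extended constructs were recovered by gel excision, streptavidin-bead capture and RT-PCR, and Illumina sequencing of input and output libraries kept genotypes with ≥10 input reads and ≥1 read per output. Fitness is the logarithm of genotype enrichment relative to wild-type enrichment, from inverse-variance-weighted replicate averages, with a logarithm base of 2.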
For the variant GACCAAUCUGGCCUCAGAGCUCGAGAACAUCUUCGGAUGCAGGGGAGGCAGGCUUCGGAGGCGCGAUAGCGCCAACGUCCUCAACCUCCAAUGCAUCCCACCACAUGAUGAUGCCUGAAGAGCCUUGGUUUUUUG, the “polymerase ribozyme fitness (log ratio)” value was -1.75.

With GACCAAUCUGCCCUCAGAGCUCGAGAACAUCUUCGGAUGCAGAGGAGGCAGGCUUCGGUGGCGCGAUACCGCCAACGUCCUCAACCUACAAUGCAUCCCACCACAUGAUGAUGCCUGAAGAGCCUUGGUUUUUUG, the “polymerase ribozyme fitness (log ratio)” value is -2.15.

For the variant GACCAAUCUGCCCUCAGAGCUCGAGAACAUCUUCGGAUGCAGAGGAGGCAGGCUUCGGUGGCGCGGUAGCGCCAACGUCCUCAACCUCCAAUGCAUCCCACCACAUGAAGAUGCCUGAAGAGCCUUGGUUUUUUG, the “polymerase ribozyme fitness (log ratio)” value was -6.35.

Consider GACCAAUCUGCCCUCAGAGCUCGAGAACAUCUUCGGAUGCAAAGGAGGCAGGCUUCGGUGGCGCGAUAGCGCCAACGUCCUCAACCUACAAUGCAUCCCACCACAUGAUGAUGCCUGAAGUGCCUUGGUUUUUUG, for which the “polymerase ribozyme fitness (log ratio)” value stood at 0.406.

For GACCAAUCUGCUCUCAGAGCUCGAGAACAUCUUCGGAUGCAGAGGAGGCAGGCUUCGGUGGCGCGAUAGCGCCAACGUCCUCAACCUCCAAUGCAUCCCACCACAUGAUGAUGCCUGAAGAGCGUUGGUUUUUUG, the “polymerase ribozyme fitness (log ratio)” value was determined as 2.23.

With GACCAAUCUGCCCUCAGCGCUCGAGAACAUCUUCGGAUGCAGAGGAGGCAGGCUUCGGUGGCGCGAUAGCGCCAACGUCCUCAACCUCCAAUGCAUCCCACCACAUGAUGAUGUCUGAAGAGCCUUGGUUUUUUG, the “polymerase ribozyme fitness (log ratio)” value was -3.82.

On to GACCAAUCUGCCCUCAGAGCUCGAGAACAUCUUCGGAUGCAGAGGAGGCAGGCUUCGGUGGAGCGAUAGCGCCAACGUCCUCAACCUCCAAUGCAUCCCAACACAUGAUGAUGCCUGAAGAGCCUUGGUUUUUUG, for which the “polymerase ribozyme fitness (log ratio)” value was -2.84.

Consider GACCAAUCUGCCCUCAGAGCUCGAGAACAUCUUCGGAUGCACGGGAGGCAGGCUUCGGUGGCGCGAUAGCGCCAACGUCCUCACCCUCCAAUGCAUCCCACCACAUGAUGAUGACUGAAGAGCCUUGGUUUUUUG, for which the “polymerase ribozyme fitness (log ratio)” value was -2.

As to GACGAAUCUGCCCUCAGCGCUUGAGAACAUCUUCGGAUGCAGAGGAGGCAGGCUUCGGUGGCGCGAUAGCGGCAACGUCCUCAACCUCCAAUUCAUCCCACCACAUGACGAUGCCUCAAGAGCCUUGGUUUUUUG, the “polymerase ribozyme fitness (log ratio)” value is -5.69.

Regarding GACCAAUCUGCCCUCAGAGCUCGAGAACAUCUUCGGAUGCGGAGGAGGCAGGCUUCGGUGGCGCGAUAGCGCCAACGUCCUCAACCUCCAAUGCAUCCUACCACAUGAUGAUGCCUGAAGAGCAUUGGUUUUUUG, the “polymerase ribozyme fitness (log ratio)” value was -2.72.

Consider GACCAAUCUGUCUUCAGAGCUCGAGAACAUCUUCGGAUGCAGAGGAGGCAGGUUUCGGUGGCUCGAUAGCGCCAACGUCCUCAACCUCCAAGGCAUCCCACCAUAUGAUGAAGCCUGAAGAGCCUUGGUUUUUUG, for which the “polymerase ribozyme fitness (log ratio)” value was -4.22.

Regarding GACCAAUCUGCCCUCAGAGCUCGAGAACAUCUUCGGAUGCAGAGGAGGCAGGCUUCGGUGGCGCGAUAGCGCCAACGUCCUCCACCUCCAAUGCAUCCCACCACAUGAUGAUGCCUGAAGAGCCUUGGUUUUUUG, the “polymerase ribozyme fitness (log ratio)” value is -0.225.

In the case of GACCAAUCUGCCAUCUGAGCUCGAGAACAUCUUCGGAUGCAGAGGAGGCAGGCUUCGGUGGCGCGAUAGCGCCAACGUCCUCAACCUCCAAUGCAUCCCACCACAUGAUGAUGCCUUAAGAGCCUUGGUUUUUUG, the “polymerase ribozyme fitness (log ratio)” value was -4.37.

Turning to GACCAAUCUGCCCUCAGAGCUCGAGAACAUCUUCGGAUGCAGAGGAUGCAGGCCUCGGUGGCGCGAUAGUGCCAACGUCCUCAACCUCCAAUGCACCCCACCACAUGAUGAUGCCCGAAGAGCCUUGGCUUUUUG, the “polymerase ribozyme fitness (log ratio)” value is -4.8.

Turning to GACCAAUCUGCCCUCAGAUCUCGAGAACAUCUUCGGAUGCAGAGGAGGCAGGCUUCGGUGGCGCGAUAACGCCAACGUCCUCAACCUCCAAUGCAUCCCACCACACGAUGAUGACUGAACAGCCUUGGUUUUUUG, the “polymerase ribozyme fitness (log ratio)” value is -2.51.

Consider GACCAAUCUGCCCUCAGAGCUCGAGAACAUCUUCGGAGGCAGAGGAGGCAGGCUUCGGUGGCGCGAUAGCGCCAACGUCCUCGACCUCCAAUGCAUCCCACCACAUGAUGAUGCCUGAAGAGCCUUGGUUUUUUG, for which the “polymerase ribozyme fitness (log ratio)” value was -1.98.

With GACCGAUCUGCCCUCAGAGCUCGAGAACAUCUUCGGAUGCAGAGGAGGCAGGCUUCGGUGGCGCGAUAGCGCCAACGUCCUCAACCUCCAAUGCAUCCCAACACAUGAUGAUGCAUGAAGAGCCUUGGUUUUUUG, the “polymerase ribozyme fitness (log ratio)” value is -0.823.

For the variant GACCAAUCUGCCCUCAGAGCUCGAGAACAUCUUCGGAUGCAGAGGAGGCAGGCUUCGGUGGCGCGAUAGCGCGAACGUCCUCAACCUCCAAUGCAUCCCAACACAUGAUGAUGCCUGAACAGCCUUGGUUUUUUG, the “polymerase ribozyme fitness (log ratio)” value is -0.681.

As to GACCAAUCUGCCCUCAGAGCUCGAGAACAUCUUCGGAUGCAGAGGAGUCAGGCUUGGGUGGCGCGAUAGCGUCAACGUCCUCAACGUCCAAUGCAUCCCACCACAUGAUGAUGCCUGAAGAGCCUUGGUUUUUUG, the “polymerase ribozyme fitness (log ratio)” value is -2.89.

Consider GACCAAUCUGCCCUCAGAGCUCGAGAACAUCUUCGGAUGCUGAGGAGGCAGGCUUCGGUGGCGCGAUAGCGGCAACGUCCUCAACCUCCAAUGCAUCCCACCACAUGAUGAUGCCUCAAGAGCCUUGGUUUUUUG, for which the “polymerase ribozyme fitness (log ratio)” value was -5.06.

As for GACCAAUCUGCCCUCAGAGCUCGAGAACAUCUUCGGAUGCAGAGGAGGCAGGCUUCGGUGGCGCGAUAGCGCCAACGUCCUAAACCUCCAAUGCAUCACACCACAUGAUGAUGUCUGAAGAGCCUUGGUUUUUUG, the “polymerase ribozyme fitness (log ratio)” value is -5.87.
